According to publication PMC4681580 (Journal of immunology (Baltimore, Md. : 1950), 2015):
Primed or numbered codes have the meaning given here. No end group written: not given here. FITC′ = fluorescein isothiocyanate

T1: wild type rat TAP1/TAP2a complex (rat) (UniProt P36370)
T1 sequence (P36370 whole entry, looked up): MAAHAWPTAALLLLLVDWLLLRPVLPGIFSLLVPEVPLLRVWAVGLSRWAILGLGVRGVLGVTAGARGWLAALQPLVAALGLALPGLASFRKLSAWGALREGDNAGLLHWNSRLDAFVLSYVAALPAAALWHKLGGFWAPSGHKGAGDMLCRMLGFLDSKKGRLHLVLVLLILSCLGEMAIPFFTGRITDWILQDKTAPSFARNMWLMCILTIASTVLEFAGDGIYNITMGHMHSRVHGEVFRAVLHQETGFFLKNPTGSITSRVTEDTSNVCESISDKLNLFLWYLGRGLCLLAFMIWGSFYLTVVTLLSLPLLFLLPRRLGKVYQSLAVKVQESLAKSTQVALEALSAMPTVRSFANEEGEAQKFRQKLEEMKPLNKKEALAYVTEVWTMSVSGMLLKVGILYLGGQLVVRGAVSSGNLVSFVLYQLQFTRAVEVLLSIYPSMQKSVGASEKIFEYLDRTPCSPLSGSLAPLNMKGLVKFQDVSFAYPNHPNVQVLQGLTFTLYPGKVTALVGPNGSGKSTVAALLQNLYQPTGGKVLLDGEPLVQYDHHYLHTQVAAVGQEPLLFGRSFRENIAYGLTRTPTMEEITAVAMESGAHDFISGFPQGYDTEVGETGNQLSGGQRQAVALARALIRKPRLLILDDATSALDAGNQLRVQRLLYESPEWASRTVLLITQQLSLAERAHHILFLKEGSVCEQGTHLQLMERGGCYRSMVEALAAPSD
T1 sequence (P36372 whole entry, looked up): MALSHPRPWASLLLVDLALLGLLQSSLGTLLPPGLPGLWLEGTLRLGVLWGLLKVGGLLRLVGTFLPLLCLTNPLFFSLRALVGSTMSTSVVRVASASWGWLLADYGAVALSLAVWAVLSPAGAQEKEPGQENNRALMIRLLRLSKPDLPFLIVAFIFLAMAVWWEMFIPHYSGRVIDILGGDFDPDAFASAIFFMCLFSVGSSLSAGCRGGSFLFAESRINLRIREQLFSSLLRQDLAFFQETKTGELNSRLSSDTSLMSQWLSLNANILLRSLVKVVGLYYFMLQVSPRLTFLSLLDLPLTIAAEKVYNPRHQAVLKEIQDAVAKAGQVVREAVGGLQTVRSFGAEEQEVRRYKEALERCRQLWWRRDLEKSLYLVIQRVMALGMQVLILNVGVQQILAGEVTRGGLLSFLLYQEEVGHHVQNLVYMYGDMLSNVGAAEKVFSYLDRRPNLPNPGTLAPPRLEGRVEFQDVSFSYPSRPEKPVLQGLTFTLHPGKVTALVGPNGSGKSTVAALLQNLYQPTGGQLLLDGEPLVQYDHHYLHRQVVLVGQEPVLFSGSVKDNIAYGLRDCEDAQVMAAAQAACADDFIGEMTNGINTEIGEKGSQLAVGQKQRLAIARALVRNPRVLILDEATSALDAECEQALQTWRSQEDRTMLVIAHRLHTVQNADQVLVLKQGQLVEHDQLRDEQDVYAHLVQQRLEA

T2: rTAP1/TAP2a(E218M) (rat) (UniProt P36370)
T2 sequence (P36370 1-725 with E218M, looked up): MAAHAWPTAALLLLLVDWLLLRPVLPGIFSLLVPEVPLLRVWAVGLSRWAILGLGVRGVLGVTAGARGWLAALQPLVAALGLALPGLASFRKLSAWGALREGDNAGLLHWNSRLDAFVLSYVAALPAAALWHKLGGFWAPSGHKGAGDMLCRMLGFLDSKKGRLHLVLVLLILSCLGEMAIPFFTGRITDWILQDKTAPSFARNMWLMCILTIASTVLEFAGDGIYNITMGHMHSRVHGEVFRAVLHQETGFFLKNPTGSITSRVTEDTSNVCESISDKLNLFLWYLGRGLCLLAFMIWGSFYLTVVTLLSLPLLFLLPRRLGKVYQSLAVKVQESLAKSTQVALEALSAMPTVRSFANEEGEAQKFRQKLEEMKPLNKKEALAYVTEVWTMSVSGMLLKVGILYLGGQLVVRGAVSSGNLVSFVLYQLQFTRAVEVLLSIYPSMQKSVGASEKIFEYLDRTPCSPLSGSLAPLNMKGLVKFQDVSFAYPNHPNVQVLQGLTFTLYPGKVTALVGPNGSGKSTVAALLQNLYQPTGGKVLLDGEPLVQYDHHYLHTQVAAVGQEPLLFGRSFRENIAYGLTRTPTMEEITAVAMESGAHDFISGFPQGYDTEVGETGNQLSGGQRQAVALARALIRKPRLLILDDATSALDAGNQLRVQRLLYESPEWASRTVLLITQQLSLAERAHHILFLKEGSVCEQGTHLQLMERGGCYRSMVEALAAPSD
T2 sequence (P36372 1-703 with E218M, looked up): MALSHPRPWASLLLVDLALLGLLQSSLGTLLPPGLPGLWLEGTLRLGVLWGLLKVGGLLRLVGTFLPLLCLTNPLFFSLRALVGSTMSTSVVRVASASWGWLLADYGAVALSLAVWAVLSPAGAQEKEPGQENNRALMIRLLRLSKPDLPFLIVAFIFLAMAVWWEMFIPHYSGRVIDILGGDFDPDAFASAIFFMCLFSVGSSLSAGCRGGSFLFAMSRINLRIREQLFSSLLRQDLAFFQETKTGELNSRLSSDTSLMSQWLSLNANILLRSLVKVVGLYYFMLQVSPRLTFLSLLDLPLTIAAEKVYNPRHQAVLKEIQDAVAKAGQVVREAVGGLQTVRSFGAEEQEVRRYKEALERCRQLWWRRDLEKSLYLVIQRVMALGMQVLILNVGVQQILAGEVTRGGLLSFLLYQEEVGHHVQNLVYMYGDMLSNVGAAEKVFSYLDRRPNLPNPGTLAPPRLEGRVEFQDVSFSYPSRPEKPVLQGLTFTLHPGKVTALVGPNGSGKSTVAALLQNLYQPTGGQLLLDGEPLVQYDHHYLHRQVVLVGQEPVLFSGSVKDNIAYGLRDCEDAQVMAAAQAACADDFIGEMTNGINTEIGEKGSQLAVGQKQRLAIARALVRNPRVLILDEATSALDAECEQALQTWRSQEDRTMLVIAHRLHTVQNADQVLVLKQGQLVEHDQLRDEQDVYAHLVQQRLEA

T3: rTAP1/TAP2a(E218M/Q262R/S265P/L266F) (rat) (UniProt P36370)
T3 sequence (P36370 1-725 with E218M Q262R S265P L266F, looked up): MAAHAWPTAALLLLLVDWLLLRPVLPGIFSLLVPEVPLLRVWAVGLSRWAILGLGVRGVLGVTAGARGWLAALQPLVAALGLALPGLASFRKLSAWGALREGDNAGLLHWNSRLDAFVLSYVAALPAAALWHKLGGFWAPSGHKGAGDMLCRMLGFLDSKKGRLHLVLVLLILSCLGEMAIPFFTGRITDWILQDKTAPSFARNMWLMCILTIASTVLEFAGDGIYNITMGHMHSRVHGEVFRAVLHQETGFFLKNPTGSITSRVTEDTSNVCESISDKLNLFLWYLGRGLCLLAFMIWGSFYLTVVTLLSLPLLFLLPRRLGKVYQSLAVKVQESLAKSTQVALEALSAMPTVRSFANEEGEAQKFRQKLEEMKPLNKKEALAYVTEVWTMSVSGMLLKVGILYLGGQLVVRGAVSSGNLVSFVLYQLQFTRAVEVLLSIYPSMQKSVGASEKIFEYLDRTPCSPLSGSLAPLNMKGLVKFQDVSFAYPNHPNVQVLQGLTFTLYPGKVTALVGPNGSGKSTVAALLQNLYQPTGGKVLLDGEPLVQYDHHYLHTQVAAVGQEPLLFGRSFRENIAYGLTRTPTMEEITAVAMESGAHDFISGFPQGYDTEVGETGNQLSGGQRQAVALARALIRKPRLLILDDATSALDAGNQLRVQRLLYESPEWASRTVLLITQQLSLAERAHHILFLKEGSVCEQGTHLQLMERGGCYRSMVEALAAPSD
T3 sequence (P36372 1-703 with E218M Q262R S265P L266F, looked up): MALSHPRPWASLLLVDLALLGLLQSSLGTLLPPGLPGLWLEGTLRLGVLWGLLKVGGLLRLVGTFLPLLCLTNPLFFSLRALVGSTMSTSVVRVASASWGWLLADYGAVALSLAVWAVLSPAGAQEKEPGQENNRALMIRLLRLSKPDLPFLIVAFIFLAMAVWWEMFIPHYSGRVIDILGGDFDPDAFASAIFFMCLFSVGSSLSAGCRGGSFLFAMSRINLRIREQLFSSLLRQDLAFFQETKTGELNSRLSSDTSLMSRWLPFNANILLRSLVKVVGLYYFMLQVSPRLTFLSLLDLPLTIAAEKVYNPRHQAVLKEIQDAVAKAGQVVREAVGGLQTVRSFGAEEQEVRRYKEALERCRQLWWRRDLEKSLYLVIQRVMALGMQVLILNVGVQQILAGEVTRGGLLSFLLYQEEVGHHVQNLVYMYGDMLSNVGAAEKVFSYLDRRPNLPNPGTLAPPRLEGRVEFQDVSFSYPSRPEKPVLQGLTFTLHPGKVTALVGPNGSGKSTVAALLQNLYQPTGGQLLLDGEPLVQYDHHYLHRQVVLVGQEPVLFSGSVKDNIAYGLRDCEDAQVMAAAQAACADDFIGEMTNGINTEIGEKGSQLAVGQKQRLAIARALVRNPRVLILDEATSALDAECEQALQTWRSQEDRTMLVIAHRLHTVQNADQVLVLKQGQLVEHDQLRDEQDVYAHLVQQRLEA


Tests used:
Experiment in all cases: cross-linking
[1] = biological target: T1, wild type rat TAP1/TAP2a complex (rat)
[2] = biological target: T2, rTAP1/TAP2a(E218M) (rat)
[3] = biological target: T3, rTAP1/TAP2a(E218M/Q262R/S265P/L266F) (rat)

Kd [1]	Kd [2]	Kd [3]	IC50 [1]	Binder
187 nM	–	–	–	TVDNK(FITC′)CAYR [TVDNK*CAYR (TC6R), FITC-labeled]
417 nM	339 nM	107 nM	–	TVDNK(FITC′)CAYV [TVDNK*CAYV (TC6V), FITC-labeled]
–	–	–	> 2000 nM	TVDNKTAYR […, unlabeled competitor peptide]
